{"source": "patent US20040258663A1", "about": "“Compositions and methods for enhanced mucosal delivery of interferon alpha” (Nastech Pharmaceutical Company Inc., priority 2003, published 2004)", "key": {"[1]": {"test": "Bioavailability of nasal interferon-α in healthy male volunteers versus subcutaneous administration", "assay_type": "in vivo, human", "settings": "for Cmax: 3 MIU, SC, human plasma", "excerpt": "The present example provides a non-blinded study to determine the uptake of intranasally administered interferon-α in combination with one or more intranasal delivery-enhancing agents into the blood serum in healthy male volunteers.\nTwelve healthy male subjects are enrolled in the step and each receives all 3 test product in a cross over fashion.\nEach receive all 3 test products.\nThe protocol involved three doses of the same test product in a dose escalation manner.\nThe absorption and tolerance results of all products tested were tabulated and analyzed for Cmax, Tmax, and bioavailability (Area under concentration curve, AUC).\nFor nasal and injectable preparations in Protocols 1 and 2, 7 mL blood samples were drawn at 0 (prior to dose), 10, 20, 30, 45, 60, 75, 90, 120, 180, 240, 360, and 480 minutes post dosing into appropriate vacutainers.\nThe blood samples were centrifuged and the serum assayed for drug concentration using ELISA Method.\nThis is a single dose, parallel group study to evaluate absorption, tolerance and pharmacodynamic parameters of Interferon-α-2b by two routes of administration: subcutaneous and intranasally. The study involves twelve healthy male subjects randomly assigned six per group (6 subjects subcutaneous and 6 intranasal). The objective of the study is to evaluate the absorption, tolerance and pharmacodynamic parameters of intranasal administration of Interferon-α-2b by formulations of the present invention versus subcutaneous administration of interferon-α-2b (IntronA®, Schering, Corp.).\nWhen receiving the intranasal dosage formulations, the subjects were seated and instructed to gently blow their nose before dosing. During dosing, the other nostril must be closed with the forefinger. They were also instructed to tilt their heads slightly back for dosing and to return their heads to an upright position while sniffing in gently immediately following dosing. Subjects must avoid additional sniffing and must remain in a seated position with head upright for 5 minutes after dosing. […]\nSerum drug concentrations were measured using a suitable analytical method. […]"}, "EpiAirway cell membrane": {"system": "EpiAirway cell membrane", "assay_type": "cell-based", "settings": "Table 11", "from_the_text": "While measurement of mitochondrial reductase activity by MTT reduction is a sensitive probe of cell viability, the assay necessarily destroys the cells and therefore can be carried out only at the end of each study. When cells undergo necrotic lysis, their cytotosolic contents are spilled into the surrounding medium, and cytosolic enzymes such as lactic dehydrogenase (LDH) can be detected in this medium. An assay for LDH in the medium can be performed on samples of medium removed at each time point of the two-hour determination of permeation kinetics.\nA. The recommended LDH assay for evaluating cytolysis of the EpiAirway units is based on conversion of lactate to pyruvate with generation of NADH from NAD. The NADH is then reoxidized along with simultaneous reduction of the tetrazolium salt INT, catalyzed by a crude “diaphorase” preparation. The formazan formed from reduction of INT is soluble, so that the entire assay for LDH activity can be carried out in a homogenous aqueous medium containing lactate, NAD, diaphorase, and INT.\nB. The assay for LDH activity is carried out on 50 μL aliquots from samples of “supernatant” medium surrounding an EpiAirway unit and collected at each time point. These samples were either stored for no longer than 24 h in the refrigerator or were thawed after being frozen within a few hours after collection. Each EpiAirway unit generates samples of supernatant medium collected at 15 min, 30 min, 1 h, and 2 h after application of the test material. The aliquots are all transferred to a 96 well microplate.\nC. A 50 μL aliquot of medium which had not been exposed to a unit serves as a “blank” or negative control of 0% cytotoxicity. […] Thus, within experimental error, these sham-treated units show no cytolysis of the epithelial cells over the time course of the permeation kinetics measurements.\nD. To prepare a sample of supernatant medium reflecting the level of LDH released after 100% of the cells in a unit have lysed, a unit which had not been subjected to any prior manipulations is added to a well of a 6-well microplate containing 0.9 mL of medium as in the protocol for determination of permeation kinetics, the plate containing the unit is frozen at −80° C., and the contents of the well are then allowed to thaw. This freeze-thaw cycle effectively lyses the cells and releases their cytosolic contents, including LDH, into the supernatant medium. A 50 μL aliquot of the medium from the frozen and thawed cells is added to the 96-well plate as a positive control reflecting 100% cytotoxicity.\nE. To each well containing an aliquot of supernatant medium, a 50 μL aliquot of the LDH assay reagent is added. The plate is then incubated for 30 minutes in the dark.\nF. The reactions are terminated by addition of a “stop” solution of 1 M acetic acid, and within one hour of addition of the stop solution, the absorbance of the plate is determined at 490 nm.\nG. Computation of percent cytolysis is based on the assumption of a linear relationship between absorbance and cytolysis, with the absorbance obtained from the medium alone serving as a reference for 0% cytolysis and the absorbance obtained from the medium surrounding a frozen and thawed unit serving as a reference for 100% cytolysis."}, "[2]": {"system": "EpiAirway™ Cell Membrane (mucosal epithelial cell layer)", "test": "Permeation kinetics of interferon-α-2b measured by ELISA assay", "settings": "Table 9", "description": "(§1) The epithelial cells are grown on porous membrane-bottomed cell culture inserts at an air-liquid interface, which results in differentiation of the cells to a highly polarized morphology. […] The inserts have a diameter of 0.875 cm, providing a surface area of 0.6 cm^2.\n(§2) A. On arrival, the units are placed onto sterile supports in 6-well microplates. Each well receives 5 mL of proprietary culture medium. This DMEM-based medium is serum free but is supplemented with epidermal growth factor and other factors. The medium is always tested for endogenous levels of any cytokine or growth factor which is being considered for intranasal delivery, but has been free of all cytokines and factors studied to date except insulin. The 5 mL volume is just sufficient to provide contact to the bottoms of the units on their stands, but the apical surface of the epithelium is allowed to remain in direct contact with air. Sterile tweezers are used in this step and in all subsequent steps involving transfer of units to liquid-containing wells to ensure that no air is trapped between the bottoms of the units and the medium.\n(§3) B. The units in their plates are maintained at 37° C. in an incubator in an atmosphere of 5% CO2 in air for 24 hours. At the end of this time the medium is replaced with fresh medium and the units are returned to the incubator for another 24 hours.\n(§4) A. A “kit” of 24 EpiAirway units can routinely be employed for evaluating five different formulations, each of which is applied to quadruplicate wells. Each well is employed for determination of permeation kinetics (4 time points), transepithelial resistance, mitochondrial reductase activity as measured by MTT reduction, and cytolysis as measured by release of LDH. An additional set of wells is employed as controls, which are sham treated during determination of permeation kinetics, but are otherwise handled identically to the test sample-containing units for determinations of transepithelial resistance and viability.\n(§5) B. In all experiments, the mucosal delivery formulation to be studied is applied to the apical surface of each unit in a volume of 100 μL, which is sufficient to cover the entire apical surface. An appropriate volume of the test formulation at the concentration applied to the apical surface (no more than 100 μL is generally needed) is set aside for subsequent determination of concentration of the active material by ELISA or other designated assay.\n(§6) D. In order to minimize potential sources of error and avoid any formation of concentration gradients, the units are transferred from one 0.9 mL-containing well to another at each time point in the study. These transfers are made at the following time points, based on a zero time at which the 100 αL volume of test material was applied to the apical surface: 15 minutes, 30 minutes, 60 minutes, and 120 minutes.\n(§7) E. In between time points the units in their plates are kept in the 37° C. incubator. Plates containing 0.9 mL medium per well are also maintained in the incubator so that minimal change in temperature occurs during the brief periods when the plates are removed and the units are transferred from one well to another using sterile forceps."}, "[3]": {"system": "EpiAirway™ Cell Membrane (mucosal epithelial cell layer)", "description": "as §1, §2, §3, §4, §5, §6, §7"}, "[4]": {"system": "ciliary function in epithelial cell cultures", "settings": "cited from earlier work"}}, "data": [{"substance": "interferon α-2b [Intron A]", "values": [{"measurement": "Cmax", "setting": "[1]; 0 to 3 hour", "value": 4.0, "unit": "IU/mL"}, {"measurement": "Cmax", "setting": "[1]; 0 to 4 hour", "value": 6.8, "unit": "IU/mL"}, {"measurement": "maximum concentration of interferon-α in the blood serum (Cmax)", "setting": "[1]; subcutaneous, 3 MIU dose, at 3 hours post dosing", "value": 4.0, "unit": "IU/mL"}, {"measurement": "% Dead Cells at Time-Intervals (min), 0", "setting": "EpiAirway cell membrane; 0 min", "value": 0, "unit": "%"}, {"measurement": "% Dead Cells at Time-Intervals (min), 15", "setting": "EpiAirway cell membrane; 15 min", "value": 0.84, "unit": "%"}, {"measurement": "% Dead Cells at Time-Intervals (min), 30", "setting": "EpiAirway cell membrane; 30 min", "value": 0.93, "unit": "%"}, {"measurement": "% Dead Cells at Time-Intervals (min), 60", "setting": "EpiAirway cell membrane; 60 min", "value": 1.65, "unit": "%"}, {"measurement": "% Dead Cells at Time-Intervals (min), 120", "setting": "EpiAirway cell membrane; 120 min", "value": 4.27, "unit": "%"}, {"measurement": "% Permeated at Time-intervals (min), 0 min", "setting": "[2]; 0 min", "value": 0, "unit": "%"}, {"measurement": "% Permeated at Time-intervals (min), 15 min", "setting": "[2]; 15 min", "value": 0.000, "unit": "%"}, {"measurement": "% Permeated at Time-intervals (min), 30 min", "setting": "[2]; 30 min", "value": 0.003, "unit": "%"}, {"measurement": "% Permeated at Time-intervals (min), 60 min", "setting": "[2]; 60 min", "value": 0.011, "unit": "%"}, {"measurement": "% Permeated at Time-intervals (min), 120 min", "setting": "[2]; 120 min", "value": 0.022, "unit": "%"}, {"measurement": "Fold Increase", "setting": "[3]", "value": 1, "unit": "fold"}]}, {"substance": "2-alkyl-4-hydroxyquinolines [pyo compound]", "values": [{"measurement": "concentration producing ciliostasis / inhibiting ciliary motility", "setting": "[4]", "value": 50, "unit": "µg/mL"}]}]}
